Measured values published in patent US20030099969A1 (published 2003).

T1: Ipaf 1-661
T1 chain: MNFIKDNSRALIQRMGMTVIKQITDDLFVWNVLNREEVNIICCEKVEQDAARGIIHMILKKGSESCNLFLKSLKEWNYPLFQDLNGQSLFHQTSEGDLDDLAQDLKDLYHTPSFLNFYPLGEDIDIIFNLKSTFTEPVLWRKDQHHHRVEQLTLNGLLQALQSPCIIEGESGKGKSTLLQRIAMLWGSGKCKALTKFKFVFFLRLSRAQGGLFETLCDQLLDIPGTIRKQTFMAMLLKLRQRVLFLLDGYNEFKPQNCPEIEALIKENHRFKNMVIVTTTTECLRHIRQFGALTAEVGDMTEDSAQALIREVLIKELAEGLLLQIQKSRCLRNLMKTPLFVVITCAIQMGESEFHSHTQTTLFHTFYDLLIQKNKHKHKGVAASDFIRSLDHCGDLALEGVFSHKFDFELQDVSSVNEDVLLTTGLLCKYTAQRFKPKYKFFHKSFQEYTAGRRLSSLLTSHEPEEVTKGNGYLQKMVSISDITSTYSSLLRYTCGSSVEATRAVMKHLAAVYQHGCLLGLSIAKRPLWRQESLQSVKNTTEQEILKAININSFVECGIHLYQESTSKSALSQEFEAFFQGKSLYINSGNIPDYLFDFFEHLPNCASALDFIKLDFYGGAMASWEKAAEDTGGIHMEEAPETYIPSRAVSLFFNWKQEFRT

T2: T7-tagged full length Ipaf
T2 chain: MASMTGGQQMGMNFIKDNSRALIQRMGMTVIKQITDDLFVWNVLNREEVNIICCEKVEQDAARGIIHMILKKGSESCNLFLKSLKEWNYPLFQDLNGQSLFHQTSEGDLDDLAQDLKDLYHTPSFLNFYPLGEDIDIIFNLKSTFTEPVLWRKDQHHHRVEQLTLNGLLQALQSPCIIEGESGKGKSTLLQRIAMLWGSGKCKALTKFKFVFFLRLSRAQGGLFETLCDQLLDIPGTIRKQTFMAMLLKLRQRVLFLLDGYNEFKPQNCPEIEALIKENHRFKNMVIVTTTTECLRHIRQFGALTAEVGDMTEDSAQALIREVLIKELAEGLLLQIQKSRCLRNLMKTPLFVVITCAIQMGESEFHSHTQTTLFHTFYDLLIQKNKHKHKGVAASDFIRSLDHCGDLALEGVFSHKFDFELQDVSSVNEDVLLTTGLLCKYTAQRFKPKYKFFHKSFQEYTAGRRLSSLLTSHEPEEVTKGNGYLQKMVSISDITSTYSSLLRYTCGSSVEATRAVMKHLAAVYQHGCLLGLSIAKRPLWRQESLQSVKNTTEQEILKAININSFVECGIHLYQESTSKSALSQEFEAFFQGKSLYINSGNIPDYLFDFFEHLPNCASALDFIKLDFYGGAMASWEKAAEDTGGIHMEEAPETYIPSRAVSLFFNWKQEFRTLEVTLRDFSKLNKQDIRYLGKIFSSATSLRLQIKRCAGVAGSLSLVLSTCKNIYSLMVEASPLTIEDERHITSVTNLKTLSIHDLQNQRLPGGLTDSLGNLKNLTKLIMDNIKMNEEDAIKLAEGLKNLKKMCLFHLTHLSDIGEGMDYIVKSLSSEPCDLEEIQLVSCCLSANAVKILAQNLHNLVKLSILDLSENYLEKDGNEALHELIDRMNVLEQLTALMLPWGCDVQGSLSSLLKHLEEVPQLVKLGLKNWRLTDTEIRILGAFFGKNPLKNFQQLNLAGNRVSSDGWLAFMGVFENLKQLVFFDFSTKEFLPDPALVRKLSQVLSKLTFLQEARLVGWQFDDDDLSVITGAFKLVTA


Tests used:
Ipaf 1-661 = target: T1, Ipaf 1-661
[1] = target: T2, T7-tagged full length Ipaf
[2] = target: T3, T7-tagged full length Ipaf (human, UniProt Q9NPP4 1-1024); experiment: co-immunoprecipitation from 293T lysates (IP anti-Flag, blot anti-T7)
T3 construct: also called T7-Ipaf; T7-tagged Ipaf
Method: 24 hours following transfection, cells were lysed in 50 mM Tris/HCl pH 7.6, 150 mM NaCl containing 0.5% NP-40, 10 μg.ml⁻¹ leupeptin and aprotinin and 0.1 mM PMSF and clarified by centrifugation at 15,000 g for 15 min. The clarified lysates were preabsorbed on protein G-Sepharose (Pharmacia) and then incubated with anti-FLAG-M5 monoclonal antibody (Eastman Kodak Co.) for 2 hours, followed by protein G-Sepharose agarose IgG beads. Immune complexes were washed extensively in the lysis buffer and eluted by boiling in an SDS sample buffer. The eluted proteins were resolved by SDS-PAGE and detected by Western analysis with a horseradish peroxidase-conjugate T7-antibody (Novagen). GST Pull-down assays were performed as described (Ahmad et al., Cancer Res 57:615-9, 1997).
24 hours following transfection, cells were lysed and the lysates immunoprecipitated (IP) with an anti-Flag antibody. The immunoprecipitates were immunoblotted (IB) with an anti-T7 antibody. Expression of T7-Ipaf or Flag-tagged constructs was determined by immunoblotting (IB) with anti-T7 or anti-Flag antibodies, respectively. […] This association was dependent on the N-terminal CARD as deletion of this domain prevented the CARD-truncated Ipaf mutant from interacting with the full-length Ipaf. Moreover, the epitope-tagged CARD of Ipaf was able to co-immunoprecipitate the full-length protein.

Binder | proteolytic activation (processing) of procaspase-1, anti-Flag immunoblot of 293T lysates (Ipaf 1-661) | proteolytic activation (processing) of procaspase-1, anti-Flag immunoblot of 293T lysates [1] | binding result [2]
N-terminally Flag-tagged procaspase-1 (protein) DYKDDDDKMADKVLKEKRKLFIRSMGEGTINGLLDELLQTRVLNKEEMEKVKRENATVMDKTRALIDSVIPKGAQACQICITYICEEDSYLAGTLGLSADQTSGNYLNMQDSQGVLSSFPAPQAVQDNPAMPTSSGSEGNVKLCSLEEAQRIWKQKSAEIYPIMDKSSRTRLALIICNEEFDSIPRRTGAEVDITGMTMLLQNLGYSVDVKKNLTASDMTTELEAFAHRPEHKTSDSTFLVFMSHGIREGICGKKHSEQVPDILQLNAIFNMLNTKNCPSLKDKPKVIIIQACRGDSPGVVWFKDSVGVSGNLSLPTTEEFEDDAIKKAHIEKDFIAFCSSTPDNVSWRHPTMGSVFIGRLIEHMQEYACSCDVEEIFRKVRFSFEQPDGRAQMPTTERVTLTRCFYLFPGH | Co-expression of the LRR-truncated Ipaf mutant, but not the full-length protein, was able to induce proteolytic activation of procaspase-1 | Co-expression of the LRR-truncated Ipaf mutant, but not the full-length protein, was able to induce proteolytic activation of procaspase-1 | –
Flag-tagged CARD-deleted mutant (residues 80-1024) of Ipaf (other, also called Flag-?CARD Ipag; CARD-truncated Ipaf mutant) DYKDDDDKLFQDLNGQSLFHQTSEGDLDDLAQDLKDLYHTPSFLNFYPLGEDIDIIFNLKSTFTEPVLWRKDQHHHRVEQLTLNGLLQALQSPCIIEGESGKGKSTLLQRIAMLWGSGKCKALTKFKFVFFLRLSRAQGGLFETLCDQLLDIPGTIRKQTFMAMLLKLRQRVLFLLDGYNEFKPQNCPEIEALIKENHRFKNMVIVTTTTECLRHIRQFGALTAEVGDMTEDSAQALIREVLIKELAEGLLLQIQKSRCLRNLMKTPLFVVITCAIQMGESEFHSHTQTTLFHTFYDLLIQKNKHKHKGVAASDFIRSLDHCGDLALEGVFSHKFDFELQDVSSVNEDVLLTTGLLCKYTAQRFKPKYKFFHKSFQEYTAGRRLSSLLTSHEPEEVTKGNGYLQKMVSISDITSTYSSLLRYTCGSSVEATRAVMKHLAAVYQHGCLLGLSIAKRPLWRQESLQSVKNTTEQEILKAININSFVECGIHLYQESTSKSALSQEFEAFFQGKSLYINSGNIPDYLFDFFEHLPNCASALDFIKLDFYGGAMASWEKAAEDTGGIHMEEAPETYIPSRAVSLFFNWKQEFRTLEVTLRDFSKLNKQDIRYLGKIFSSATSLRLQIKRCAGVAGSLSLVLSTCKNIYSLMVEASPLTIEDERHITSVTNLKTLSIHDLQNQRLPGGLTDSLGNLKNLTKLIMDNIKMNEEDAIKLAEGLKNLKKMCLFHLTHLSDIGEGMDYIVKSLSSEPCDLEEIQLVSCCLSANAVKILAQNLHNLVKLSILDLSENYLEKDGNEALHELIDRMNVLEQLTALMLPWGCDVQGSLSSLLKHLEEVPQLVKLGLKNWRLTDTEIRILGAFFGKNPLKNFQQLNLAGNRVSSDGWLAFMGVFENLKQLVFFDFSTKEFLPDPALVRKLSQVLSKLTFLQEARLVGWQFDDDDLSVITGAFKLVTA | – | – | no binding
